According to US20260151429A1 (NANJING LEGEND BIOTECH, published 2026):

T1: recombinant human IL13RA2 (human, UniProt Q14627 27-343)
T1 construct: Coating antigen of the phage ELISA screen; The immunogen was ACRO Cat. No. IL2-H52H5; also called antigen proteins
T1 sequence (looked up): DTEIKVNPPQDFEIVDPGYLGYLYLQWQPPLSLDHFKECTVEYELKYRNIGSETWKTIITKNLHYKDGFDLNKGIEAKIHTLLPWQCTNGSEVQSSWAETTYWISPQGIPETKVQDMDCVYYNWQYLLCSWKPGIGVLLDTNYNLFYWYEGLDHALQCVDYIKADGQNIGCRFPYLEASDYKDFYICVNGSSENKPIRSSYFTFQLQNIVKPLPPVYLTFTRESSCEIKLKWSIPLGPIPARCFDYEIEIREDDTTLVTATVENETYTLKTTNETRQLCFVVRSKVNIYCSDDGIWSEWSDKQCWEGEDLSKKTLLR

T2: Recombinant IL13RA2-His protein (Sino Biological, Cat #10350-H08H) (human, UniProt Q14627 27-343)
T2 construct: Bought protein; also called human IL13RA2 his-tag protein; IL13AR2; not shown: His tag
T2 sequence (looked up): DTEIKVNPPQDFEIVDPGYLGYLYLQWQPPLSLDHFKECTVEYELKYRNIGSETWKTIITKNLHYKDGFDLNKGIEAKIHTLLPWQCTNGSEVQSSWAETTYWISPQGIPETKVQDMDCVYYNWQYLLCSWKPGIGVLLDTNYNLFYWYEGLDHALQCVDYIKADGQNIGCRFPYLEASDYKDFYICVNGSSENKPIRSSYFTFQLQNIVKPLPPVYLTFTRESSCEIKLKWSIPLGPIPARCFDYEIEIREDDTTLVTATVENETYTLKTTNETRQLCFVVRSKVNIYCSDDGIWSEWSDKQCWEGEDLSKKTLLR


Columns and labels:
[1] = biological target: IL13RA2 on tumor cell lines (U251MG.Luc, U87MG.Luc, U87MG.Luc clone2, U138MG.Luc, A375.Luc) (UniProt Q14627); experiment: cell-based or functional assay
[2] = biological target: T1, recombinant human IL13RA2; experiment: phage ELISA on plates coated with recombinant human IL13RA2, anti-M13-HRP, A450
Experimental: Individual output phage clones were grown in 96-deep-well plates and rescued by M13KO7 helper phage overnight. To identify clones that bound to antigen proteins, 96-well ELISA microtiter plates were coated with recombinant human IL13RA2 in coating buffer overnight at 4° C., and the plates were then blocked with blocking buffer. After blocking, approximately 50 µL per well of phage supernatant from overnight cell culture was added to the plates for 1.5-hour incubation at 4° C. The plates were washed four times, and the HRP-conjugated anti-M13 monoclonal antibody was added to the plates for 45-minute incubation at 4° C. The plates were again washed five times and substrate solution was added to the wells for color developing. Absorbance at 450 nm was measured for each well.

[3] = biological target: T2, Recombinant IL13RA2-His protein (Sino …); experiment: SPR, Biacore 2000; VHH-mIgG1Fc coupled to CM5 chip, IL13RA2-His injected; 1:1 Langmuir fit
Experimental: The affinity of each VHH-mIgG1Fc for IL13AR2 was determined by SPR using a BIACORE® 2000 analytical system (GE Healthcare). Briefly, each VHH-mIgG1Fc protein was covalently coupled to a CM5(s) sensor chip using 4 μg/ml VHH-mIgG1Fc. Recombinant IL13RA2-His protein (Sino Biological, Cat #10350-H08H) was serially diluted in running buffer (10 mM HEPES, 150 mM NaCl, 3 mM EDTA, 0.05% Tween-20, pH 7.4) and injected at a flowrate of 10 μl/min followed by dissociation. The association and dissociation rate constants were determined using the BIACORE® 2000 evaluation software version 3.0 (Langmuir binding, local fit, 1:1 binding model).

Molecule	binding result [2]	Kd [3] [nM]	koff [3] [s⁻¹]	kon [3] [M⁻¹ s⁻¹]	also measured
IL13-E13Y CAR (from UniProt P35225 35-146)					IFNγ release level, CAR-T co-cultured with U87MG.Luc (UnT 80) [1]: 580 pg/mL; IFNγ release level, CAR-T co-cultured with U138MG.Luc (UnT 70) [1]: 252 pg/mL; IFNγ release level, CAR-T co-cultured with U251MG.Luc (UnT 196) [1]: 4360 pg/mL
VHH1345-mIgG1Fc (Fc fusion, also called VHH-mIgG1Fc chimeric antibody; single VHH chimeric anti-IL13RA2 antibody) AVQLVDSGGGSAQVGGSLKLSCTASGYIFSSCGMGWYRQAPGKKREFVTSVSKYGTTTYPDSVKGRFTISLDNAKNTAYLQMNSLKIEDTAVYYCTTLASRGTTCPASVYSGPGTQVTVSSVPRDCGCKPCICTVPEVSSVFIFPPKPKDVLTITLTPKVTCVVVDISKDDPEVQFSWFVDDVEVHTAQTQPREEQFNSTFRSVSELPIMHQDWLNGKEFKCRVNSAAFPAPIEKTISKTKGRPKAPQVYTIPPPKEQMAKDKVSLTCMITDFFPEDITVEWQWNGQPAENYKNTQPIMNTNGSYFVYSKLNVQKSNWEAGNTFTCSVLHEGLHNHHTEKSLSHSPGK		14	0.00045	33000	
VHH1330-(GGGGS)2-VHH1345-mIgG1Fc (Fc fusion, Two VHH domains joined by (GGGGS)2 and fused to mouse IgG1 Fc; also called bi-VHH-mIgG1Fc; bi-VHH chimeric anti-IL13RA2 antibody) QVQLVESGGGLVQPGGSLTLSCAASGYRISLYKMGWFRQDPGKQREGVAAVDRNGRTIYADSVKGRFTIYQDNAKNTLDLQMNSLKPEDTAMYYCAADLWRIGSPASLSPTDYGDWGQGTQVTVSSGGGGSGGGGSAVQLVDSGGGSAQVGGSLKLSCTASGYIFSSCGMGWYRQAPGKKREFVTSVSKYGTTTYPDSVKGRFTISLDNAKNTAYLQMNSLKIEDTAVYYCTTLASRGTTCPASVYSGPGTQVTVSSVPRDCGCKPCICTVPEVSSVFIFPPKPKDVLTITLTPKVTCVVVDISKDDPEVQFSWFVDDVEVHTAQTQPREEQFNSTFRSVSELPIMHQDWLNGKEFKCRVNSAAFPAPIEKTISKTKGRPKAPQVYTIPPPKEQMAKDKVSLTCMITDFFPEDITVEWQWNGQPAENYKNTQPIMNTNGSYFVYSKLNVQKSNWEAGNTFTCSVLHEGLHNHHTEKSLSHSPGK		0.71	5.4e-05	75000	
VHH1330-mIgG1Fc (Fc fusion, also called VHH-mIgG1Fc chimeric antibody; single VHH chimeric anti-IL13RA2 antibody) QVQLVESGGGLVQPGGSLTLSCAASGYRISLYKMGWFRQDPGKQREGVAAVDRNGRTIYADSVKGRFTIYQDNAKNTLDLQMNSLKPEDTAMYYCAADLWRIGSPASLSPTDYGDWGQGTQVTVSSVPRDCGCKPCICTVPEVSSVFIFPPKPKDVLTITLTPKVTCVVVDISKDDPEVQFSWFVDDVEVHTAQTQPREEQFNSTFRSVSELPIMHQDWLNGKEFKCRVNSAAFPAPIEKTISKTKGRPKAPQVYTIPPPKEQMAKDKVSLTCMITDFFPEDITVEWQWNGQPAENYKNTQPIMNTNGSYFVYSKLNVQKSNWEAGNTFTCSVLHEGLHNHHTEKSLSHSPGK		60	0.0022	37000	

The next lines start with results.

binding result [2]	Kd [3] [nM]	koff [3] [s⁻¹]	kon [3] [M⁻¹ s⁻¹]	Molecule	also measured
binds				VHH1353 (VHH) VHH: EVQLVESGGGSVQAGGSLRLSCAASGYTSSTNCMGWFRQAPGKEREGVASIRGTGGSTYYADSVKGRFTISRDDGKNTLYLQMNSLKPEDTAMYYCAAATGTSFSEARCVTAPPYKYPYWGQGTQVTVSS	
binds				VHH2110 (VHH) VHH: QVKLEESGGGSVQAGGSLRLSCAASGIPTRTLFMGWFRQAPGKEREEVARISDNGNTGYADFVKGRFTISKDNSKNTLYLQMSSLKPDDTAMYYCSARRASYSATVLWGQGTQVTVSS	
binds				VHH1354 (VHH) VHH: AVQLVDSGGGLVQPGGSLRLSCAASGFTFSTYGMSWVRQPPGKGLEWVSGISPGGDHTTYADSVKGRFTISRDNAKNTLYLQLSSLKTEDTAMYYCTTVPGRSRYGNYNPRGQGTQVTVSS	
binds				VHH1366 (VHH) VHH: QVKLEESGGGSVEAGGSLKLSCAGFGDMFSSCGMGWYRQAPGKEREMVSRISPRGTSITIDSVRGRFTISRDNAKNTLALEMNSLKIEDTAVYYCAAGGDSASRTPRCRSLNWGQGTQVTVSS	
binds				VHH1343 (VHH) VHH: QVKLEESGGGSVQAGGSLKLSCAASGYNFSKCGMGWFRRALREERELVAEISNDGTTTYDDSVKGRFTISRDNVKNTVYLQMNNLKTEDTAVYYCASRNPCGLLWGQGTQVTVSS	
binds				VHH1339 (VHH) VHH: EVQLVESGGGSVQAGGSLKLSCAASGDIFSMCGMGWYRQAPGKQREMVSRISPRGTAIYPDSLKGRFTVSRDNAKNTLYLQMNSLNTEDTAVYYCAAGGDSASRTPHCRSLNWGQGTQVTVSS	
